{"source": "patent US6060513A", "about": "“Compounds and compositions for delivering active agents” (Emisphere Technologies, Inc., priority 1997, dated 2000)", "assay": "In Vivo Interferon Delivery (ELISA for human interferon)", "design": "species or system Rats", "conditions": "1 mg/kg interferon, no carrier"}
{"substance": "interferon", "values": [{"measurement": "Mean peak serum interferon concentration", "setting": "IC", "result": "79±100"}, {"measurement": "Mean peak serum interferon concentration", "setting": "PO", "result": "1951±1857"}]}
